Source: article PMC7599842, “PARP1 Deficiency Reduces Tumour Growth by Decreasing E2F1 Hyperactivation: A Novel Mechanism in the Treatment of Cancer” (Cancers, 2020)

Target: T1, PARP1 (poly (ADP-ribose) polymerase-1) (UniProt P09874 1-1014)
T1 construct: PARP1, bought from Trevigen; Commercial protein; catalogue number not given; source: bought: Trevigen
Experiment: BLI; GST-E2F1 immobilised on GST biosensors; serial dilutions of PARP1; FortéBio BLItz instrument, global fitting
Conditions: both partners purified

T1 sequence (P09874 whole entry): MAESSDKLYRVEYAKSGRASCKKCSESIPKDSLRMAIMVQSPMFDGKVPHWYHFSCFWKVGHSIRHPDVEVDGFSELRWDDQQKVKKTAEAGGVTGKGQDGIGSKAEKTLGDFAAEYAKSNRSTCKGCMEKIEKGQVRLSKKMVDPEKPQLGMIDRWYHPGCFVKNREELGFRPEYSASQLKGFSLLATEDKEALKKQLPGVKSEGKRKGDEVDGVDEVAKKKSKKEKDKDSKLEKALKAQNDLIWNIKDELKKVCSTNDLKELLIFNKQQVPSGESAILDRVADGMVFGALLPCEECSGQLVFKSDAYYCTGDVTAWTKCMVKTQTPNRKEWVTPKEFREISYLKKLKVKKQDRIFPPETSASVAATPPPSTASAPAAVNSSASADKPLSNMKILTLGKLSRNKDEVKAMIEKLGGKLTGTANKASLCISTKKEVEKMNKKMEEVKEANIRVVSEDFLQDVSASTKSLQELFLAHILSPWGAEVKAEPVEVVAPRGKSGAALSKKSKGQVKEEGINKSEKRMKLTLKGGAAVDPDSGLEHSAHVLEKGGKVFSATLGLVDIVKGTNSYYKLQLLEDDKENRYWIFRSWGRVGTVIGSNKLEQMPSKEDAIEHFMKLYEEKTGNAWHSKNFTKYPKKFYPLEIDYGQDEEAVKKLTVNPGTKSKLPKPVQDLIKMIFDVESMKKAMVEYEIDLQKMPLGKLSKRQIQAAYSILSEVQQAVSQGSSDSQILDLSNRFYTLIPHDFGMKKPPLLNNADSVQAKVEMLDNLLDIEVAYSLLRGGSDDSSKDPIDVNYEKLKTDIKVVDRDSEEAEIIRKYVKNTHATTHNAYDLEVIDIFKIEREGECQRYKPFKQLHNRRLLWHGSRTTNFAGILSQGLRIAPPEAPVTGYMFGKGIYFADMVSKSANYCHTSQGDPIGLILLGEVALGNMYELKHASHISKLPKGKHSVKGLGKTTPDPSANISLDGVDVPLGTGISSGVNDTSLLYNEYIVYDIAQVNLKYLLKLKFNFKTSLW

Kd: 22 µM
B1: Recombinant GST-hE2F1 (natural protein)
chain: not shown
notes: E2F1 transcription factor, human (hE2F1); also called GST-E2F1; source: recombinant, purified as described elsewhere [27]
